Results taken from US7521477B2, “Vitamin C derivatives with peptide, preparation method thereof and composition comprising the same” (Peptron Co., Ltd., priority 2003, dated 2009).
Numbered stars: 1 amine (or outer) side, 2 acyl side, 3 side chain; on linkers, the order of the positions; unused ones are H or OH. Ends that are not written are not given here. * marks the point of attachment. Suc = O=C(CCC(=O)[*:2])[*:1]; Propyl = CCC*

Tests used:
male Hartley guinea pigs [1] = assay: Phototoxicity test
Description: Each of the test samples was applied to the skin of guinea pigs, and the guinea pigs were exposed to ultraviolet A (UVA) radiation. Then, potency to induce phototoxicity was evaluated. Induction of phototoxicity, which is an abnormal response of the skin to a photo-stimulus such as ultraviolet or visible light, occurs non-immunologically by a chemical. Unlike the allergic response, the degree of phototoxicity can be expected by sufficient intensity of radiation and drugs.
CP and 8-MOP were prepared at a final concentration of 10% in DMSO and then diluted to 1%. Each of guinea pigs was fixed on a fixing plate, and the skin of the guinea pig was covered with 50 μl of each of the test samples. Then, the right area of the skin was not exposed to UV light, and the left area of the skin was exposed to UVA light (320 to 380 nm) of 15 J/cm^2, which was irradiated in a distance of about 10 cm for about 2 hrs. 24 hrs, 48 hr and 72 hrs after UVA irradiation, photosensitization in the treatment group was evaluated in comparison with that in the positive control groups.

[2] = Color change test (storage stability in solution); assay type: physicochemical; design: key: −: no or very slight noticeable change (colorless or light yellow); +: slight; ++: moderate; +++: extreme; settings: 50 mM in 50 mM potassium phosphate pH 7.0, 40° C.
Description: The compounds I to IV synthesized in Example 4 and vitamin C (Sigma Aldrich) were independently dissolved in 50 mM potassium phosphate of pH 7.0 at a concentration of 50 mM, and stored in an incubator at 40° C. for three weeks. Thereafter, the compounds and vitamin C were evaluated for color change according to the standard criteria, and the results are given in Table 2, below.

mushroom tyrosinase = mushroom tyrosinase (Agaricus bisporus, UniProt C7FF04); assay: Inhibitory activity against tyrosinase; assay type: biochemical, mushrooms; settings: tyrosine substrate, pH 6.8, 37° C.; read-out: IC50 (compound concentration to inhibit 50% of tyrosinase activity)
mushroom tyrosinase, sequence (C7FF04 1-392): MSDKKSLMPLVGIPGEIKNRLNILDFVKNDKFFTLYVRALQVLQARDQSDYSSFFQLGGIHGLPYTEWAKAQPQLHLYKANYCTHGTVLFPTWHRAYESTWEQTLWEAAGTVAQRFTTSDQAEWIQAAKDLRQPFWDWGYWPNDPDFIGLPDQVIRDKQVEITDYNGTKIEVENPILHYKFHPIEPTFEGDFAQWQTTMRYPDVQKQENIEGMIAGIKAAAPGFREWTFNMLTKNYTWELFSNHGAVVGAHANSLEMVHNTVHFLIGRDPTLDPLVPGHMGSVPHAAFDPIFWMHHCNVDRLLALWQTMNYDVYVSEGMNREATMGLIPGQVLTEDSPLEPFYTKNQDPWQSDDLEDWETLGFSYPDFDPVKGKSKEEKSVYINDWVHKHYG
Description: Tyrosinase was purchased from the Sigma Company, which was isolated from mushrooms and purified. Tyrosin as a substrate for the purified mushroom tyrosinase was prepared by dissolving in 0.05 M potassium phosphate buffer (pH 6.8) in an amount of 0.3 mg/ml. The compounds and vitamin C were dissolved in distilled water at a concentration of 10 mM, and diluted with distilled water to suitable concentrations.
0.5 ml of the tyrosine solution and 0.5 ml of a buffer were put into a test tube, and 0.5 ml of the diluted compound or vitamin C was added to the test tube. After each test tube was incubated in an incubator at 37° C. for 10 min, 0.05 ml of tyrosinase (2,000 U/ml) was added to each test tube, followed by incubation at 37° C. for 10 min. A sample added with 0.5 ml distilled water instead of the compound was used as a control. Thereafter, each test tube was rapidly cooled on ice to terminate the reaction. Absorbance at 475 nm was measured using a spectrophotometer. Inhibition rate against tyrosinase was calculated using the measured absorbance according to the following Equation 1, and IC50 values (compound concentration to inhibit 50% of tyrosinase activity) were then determined. Inhibition rate (%)=(A−B)/A×100 Equation 1
wherein, A is an absorbance at 475 nm of a sample not containing an inhibitor, and B is an absorbance at 475 nm of a sample containing an inhibitor.

male Hartley guinea pigs [3] = assay: Photosensitization test (Adjuvant & Strip method); assay type: in vivo
Description: A photosensitization test for the compound II-4 was carried out according to an Adjuvant & Strip method using male Hartley guinea pigs. After four sites to be sensitized were selected at the cervical and dorsal skin of the guinea pigs, an emulsion of WFI and FCA were intradermally injected to each of the selected sites. The sensitized sites were stripped only in a degree of inducing weak erythema, and covered with 0.01 PBS (excipient group), the compound II-4 (test group) and CP (chlorpromazine; positive control group) in a non-occlusive manner. After two hours, long wave-length UV light of about 10 J/cm^2 was irradiated to the test substance-applied sites. 24 hrs, 48 hrs and 72 hrs after UV irradiation, signs of photosensitization were investigated.

[4] = Areas exposed to UVA, applied concentration 0.1%
[5] = Areas exposed to UVA, applied concentration 1%
[6] = Areas exposed to UVA, applied concentration 10%
[7] = Areas not exposed to UVA, applied concentration 0.1%
[8] = Areas not exposed to UVA, applied concentration 1%
[9] = Areas not exposed to UVA, applied concentration 10%

Compound | Color change After 1 week [2] | Color change After 2 weeks [2] | Color change After 3 weeks [2] | further results
COc1c2occc2cc2ccc(=O)oc12 [Compound 8-MOP, 8-methoxypsoralen] |  |  |  | Evaluation (male Hartley guinea pigs [1]; [4]): Clearly irritating; Mean score (male Hartley guinea pigs [1]; [4]): 2.3; Evaluation (male Hartley guinea pigs [1]; [5]): Extremely irritating; Mean score (male Hartley guinea pigs [1]; [5]): 3.2; Evaluation (male Hartley guinea pigs [1]; [6]): Extremely irritating; Mean score (male Hartley guinea pigs [1]; [6]): 4.0; Evaluation (male Hartley guinea pigs [1]; [7]): Practically non-irritating; Mean score (male Hartley guinea pigs [1]; [7]): 0; Evaluation (male Hartley guinea pigs [1]; [8]): Clearly irritating; Mean score (male Hartley guinea pigs [1]; [8]): 1.4; Evaluation (male Hartley guinea pigs [1]; [9]): Clearly irritating; Mean score (male Hartley guinea pigs [1]; [9]): 1.4
NCCCCC(NC(=O)C(Cc1cnc[nH]1)NC(=O)CNCCCOC1=C(O)C(C(O)CO)OC1=O)C(=O)O (centres unmarked) [IV-1, 2-(propyl-glycyl-histidyl-lysine)ascorbic acid] | − | + | ++ | 
O=C(CCC(=O)OCC(OC(=O)CCC(=O)NCC(=O)N1CCCC1C(=O)N1CC(O)CC1C(=O)O)C1OC(=O)C(O)=C1O)NCC(=O)N1CCCC1C(=O)N1CC(O)CC1C(=O)O (centres unmarked) [III-3, 5,6-(succinyl-glycyl-prolyl-hydroxyproline)ascorbic acid] | − | + | + | 
NCCCC[C@H](NC(=O)CNC(=O)CCC(=O)OC(CO)C1OC(=O)C(O)=C1O)C(=O)N[C@@H](Cc1c[nH]cn1)C(=O)O (some centres unmarked) [Compound I-2, 5-(succinyl-glycyl-lysyl-histidine)ascorbic acid] | − | + | + | 
O=C(CCC(=O)OC(CO)C1OC(=O)C(O)=C1O)NCC(=O)N1CCCC1C(=O)N1CC(O)CC1C(=O)O (centres unmarked) [Compound I-3, 5-(succinyl-glycyl-prolyl-hydroxyproline)ascorbic acid] | − | + | + | 
NCCCCC(NC(=O)C(Cc1cnc[nH]1)NC(=O)CNC(=O)CCC(=O)OCC(O)C1OC(=O)C(O)=C1O)C(=O)O (centres unmarked) [II-1, 6-(succinyl-glycyl-histidyl-lysine)ascorbic acid] | − | + | + | IC50 (mushroom tyrosinase): 650 µM
O=C1OC(C(O)CO)C(O)=C1OCCCNCC(=O)N1CCC[C@H]1C(=O)N1CC(O)C[C@H]1C(=O)O (some centres unmarked) [IV-3, 2-(propyl-glycyl-prolyl-hydroxyproline)ascorbic acid] | − | + | ++ | 
6-(succinyl-glycyl-lysyl-histidine)ascorbic acid [II-2] | − | + | + | IC50 (mushroom tyrosinase): 700 µM
O=C(CCC(=O)OCC(O)C1OC(=O)C(O)=C1O)NCC(=O)N1CCCC1C(=O)N1CC(O)CC1C(=O)O (centres unmarked) [II-3, 6-(succinyl-glycyl-prolyl-hydroxyproline)ascorbic acid] | − | + | + | 
2-(propyl-lysyl-threonyl-threonyl-lysyl-serine(SEQ ID NO:1))ascorbic acid ({ascorbic acid-Propyl}-KTTKS) [IV-4] | − | + | ++ | 
2-(propyl-glycyl-lysyl-histidine)ascorbic acid [IV-2] | − | + | ++ | 
O=C1O[C@H]([C@@H](O)CO)C(O)=C1O [Vitamin C, ascorbic acid] | + | +++ |  | 
5-(succinyl-lysyl-threonyl-threonyl-lysyl-serine)ascorbic acid [Compound I-4] | − | + | + | 
NCCCCC(NC(=O)C(Cc1cnc[nH]1)NC(=O)CNC(=O)CCC(=O)OC(CO)C1OC(=O)C(O)=C1O)C(=O)O (centres unmarked) [Compound I-1, 5-(succinyl-glycyl-histidyl-lysine)ascorbic acid] | − | + | + | 
5,6-di(succinyl-glycyl-lysyl-histidine)ascorbic acid [III-2] | − | + | + | 
5,6-di(succinyl-glycyl-histidyl-lysine)ascorbic acid [III-1] | − | + | + | 
CN(C)CCCN1c2ccccc2Sc2ccc(Cl)cc21 [CP, Chlorpromazine] |  |  |  | Stimulation index (male Hartley guinea pigs [3]; Areas exposed to UVA): 5.8; Stimulation index (male Hartley guinea pigs [3]; Areas not exposed to UVA): 0.0; Photosensitization index (male Hartley guinea pigs [3]; index of UVA irradiation site minus index of non-irradiation site): 5.8; Total score/Site No. (male Hartley guinea pigs [1]; male, Hartley, guinea pig, in vivo): 0 + 0/10
5,6-di(succinyl-lysyl-threonyl-threonyl-lysyl-serine(SEQ ID NO:1))ascorbic acid ({ascorbic acid-Suc}-KTTKS; also: two succinyl-linked peptides on one ascorbic acid) [III-4] | − | + | + | 
